Data as given in US20120316113A1, “FGF BASED FIBRIN BINDING PEPTIDES” (Baxter Healthcare S.A., priority 2011, published 2012).
Entries after “also recorded” stand apart in the source; their conditions may differ. Ends that are not written are not given here.

How the values were obtained:
fibrinogen [1] = molecular target: T1, fibrinogen (Homo sapiens, UniProt P02671+P02675+P02679); assay: Fibrinogen binding assay by ELISA; settings: plate coated with 1 mg/ml fibrinogen, various concentrations, anti-His6-peroxidase detection
T1 sequence (P02671 20-629 limits assumed): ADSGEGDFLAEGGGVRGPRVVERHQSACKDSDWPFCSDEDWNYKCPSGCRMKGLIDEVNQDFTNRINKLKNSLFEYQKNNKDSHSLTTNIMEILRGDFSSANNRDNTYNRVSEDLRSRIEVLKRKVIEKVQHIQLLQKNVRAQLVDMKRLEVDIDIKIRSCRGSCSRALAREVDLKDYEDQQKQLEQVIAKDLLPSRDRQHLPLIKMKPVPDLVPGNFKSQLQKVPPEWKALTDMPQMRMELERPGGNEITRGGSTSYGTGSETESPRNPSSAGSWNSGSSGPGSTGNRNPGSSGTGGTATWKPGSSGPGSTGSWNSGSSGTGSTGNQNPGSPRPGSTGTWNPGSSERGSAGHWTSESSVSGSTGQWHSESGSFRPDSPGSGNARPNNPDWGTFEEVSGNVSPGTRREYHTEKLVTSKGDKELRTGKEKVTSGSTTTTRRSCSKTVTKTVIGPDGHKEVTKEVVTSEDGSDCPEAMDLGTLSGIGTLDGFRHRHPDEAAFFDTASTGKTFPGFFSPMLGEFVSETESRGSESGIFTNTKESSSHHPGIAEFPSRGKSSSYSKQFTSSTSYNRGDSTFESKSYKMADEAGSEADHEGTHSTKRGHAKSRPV
T1 sequence (P02675 31-491): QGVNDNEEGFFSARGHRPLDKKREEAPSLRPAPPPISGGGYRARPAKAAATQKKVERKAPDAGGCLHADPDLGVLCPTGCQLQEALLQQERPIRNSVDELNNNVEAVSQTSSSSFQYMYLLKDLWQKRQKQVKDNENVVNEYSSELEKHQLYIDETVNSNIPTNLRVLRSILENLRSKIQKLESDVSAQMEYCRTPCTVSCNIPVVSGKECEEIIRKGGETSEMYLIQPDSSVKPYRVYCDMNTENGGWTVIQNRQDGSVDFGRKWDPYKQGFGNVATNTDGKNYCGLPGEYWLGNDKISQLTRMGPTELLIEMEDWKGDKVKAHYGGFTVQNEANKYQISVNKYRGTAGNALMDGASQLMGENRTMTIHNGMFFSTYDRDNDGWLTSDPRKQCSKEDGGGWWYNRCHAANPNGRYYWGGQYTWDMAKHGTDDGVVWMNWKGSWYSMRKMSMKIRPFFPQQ
T1 sequence (P02679 27-433 limits assumed): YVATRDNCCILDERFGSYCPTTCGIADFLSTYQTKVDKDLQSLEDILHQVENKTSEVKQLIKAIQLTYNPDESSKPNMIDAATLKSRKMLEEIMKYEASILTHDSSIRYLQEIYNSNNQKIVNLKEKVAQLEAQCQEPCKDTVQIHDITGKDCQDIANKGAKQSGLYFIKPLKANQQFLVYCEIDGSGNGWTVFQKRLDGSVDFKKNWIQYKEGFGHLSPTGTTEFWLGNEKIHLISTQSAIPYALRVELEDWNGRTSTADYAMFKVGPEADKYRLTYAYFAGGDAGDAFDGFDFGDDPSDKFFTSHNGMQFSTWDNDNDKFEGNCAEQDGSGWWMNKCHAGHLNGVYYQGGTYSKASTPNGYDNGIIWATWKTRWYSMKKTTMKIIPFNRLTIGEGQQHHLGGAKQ
Method: (§1) A polystyrene 96-well plate (Nunc® Maxisorp EUSA-plates) was coated with 1 mg/ml fibrinogen (Tisseel®, Baxter AG, Vienna) overnight at 4° C. and then blocked with blocking solution (PBS+1% BSA) for 2 hours at room temperature CRT). After washing three times with PBS, purified peptides were added in various dilutions to the plate and incubated for 1 hour at RT. After the three times washing with PBS, a monoclonal anti-His6-peroxidase antibody (Sigma-Aldrich, Vienna), diluted in PBS+0.1% Tween (Sigma-Aldrich, Vienna) was added and incubated for 1 hour at RT. Finally, the plate was washed three times with PBS again and wells were incubated with o-phenylenediaminehydrochlorid substrate. Absorbance was measured at 492 nm and 620 nm. For fibrin binding analysis, the plate was first coated with fibrinogen overnight at 4° C. and then incubated with 10 I.U./ml thrombin (Tisseel, Baxter AG, Vienna) for 30 minutes at 37° C. The following procedure was the same as described above. For the surface plasmon resonance (SPR) method fibrinogen was coupled to a gold sensor chip (10% COOH—(PEG)6-C11—SH, 90% OH(PEG)3-C11—SH; Reichert Analytical, NY, USA) by amine chemistry using EDC (1-ethyl-3-[3-dimethylaminopropyl]carbodiimide hydrochloride) and NHS (N-hydroxysuccinimide) (Pierce, Ill., USA). Uncoupled sites on the gold sensor chip were blocked with 1 M ethanolamine pH 8.5 (Sigma-Aldrich, MO, USA). The purified recombinant proteins and peptides were passed over the chip's surface at a flow rate of 0.4 ml/min to 0.8 ml/min and allowed to interact. The signals were detected and recorded at the Reichert SR7000 Surface Plasmon Resonance Analytical Instrument (Reichert Analytical, NY, USA). After each measurement the sensor chip surface was regenerated by a pulse with 100 mM phosphoric acid (Mallinckrodt Chemicals, NJ, USA) after each application of the samples. Association and dissociation signals were fitted to one association curve using a prism software calculation program.
Purified, proteins and peptides in different concentrations were used for testing the binding affinity to fibrinogen and fibrin (FIG. 5).

fibrinogen [2] = molecular target: T1, fibrinogen; assay: Surface plasmon resonance (SPR) binding to fibrinogen coupled to gold sensor chip; settings: fibrinogen on sensor chip; fitted association curves
Method: as §1

[3] = system: mouse myoblast cell line (C2C12); assay: Biological activity: viability (MTT) assay of mouse myoblast C2C12 cells; type: cell-based
Method: A moose myoblast cell line (C2C12; ECACC (Sigma-Aldrich, Vienna)) was grown in Dulbecco's Modified Eagle Medium (DMEM) with 10% fetal calf serum (FCS). At 50-60% confluence cells were trypsinized and transferred to a 24-well plate (1×10^4/well).
Following a 48-hour-culture period at 37° C., cells were washed with DMEM only and then covered with medium (DMEM+1% FCS) containing various concentrations of hFGF-2 or hFGF-2 peptides. After 48 hours number of viable cells was determined by adding 3-(4,5-dimethylthiazol-2-yl)-2,5-diphenyltetrazolium bromide (MTT, Sigma-Aldrich, Vienna) as previously described {M05}.

[4] = 146 amino acid variant; cited from earlier work

Substance	binding affinity to fibrinogen (fibrinogen [1])	binding signal (SPR) (fibrinogen [2])	activity retained relative to the full length protein ([3]; relative to full length hFGF-2)	isoelectric point [4]	proliferative activity / cell growth effect ([3]; 48 hours, DMEM+1% FCS, MTT)	concentration dependence of biological activity ([3]; various concentrations)
EERGVVSIKGVCANRYLAMKEDGRLLASKCVTDECFFFERLESNNYNTYRSR (EERGVVSIKGVCANRYLAMKEDGRLLASKCVTDECFFFERLESNNYNTYRSR; not fully specified (C-terminus); cysteine pairing not given here) [pep1, recombinant truncated hFGF-2 peptide (68 aa) with C-terminal 6x HIS-tag, expressed as GST fusion in E. coli and cleaved]	high affinity	weak and short binding signals				
GVCANRYLAMKEDGRLLASKCVTDECFFFERLESNNYNTYRSR (GVCANRYLAMKEDGRLLASKCVTDECFFFERLESNNYNTYRSR; not fully specified (C-terminus); cysteine pairing not given here) [pep2, recombinant truncated hFGF-2 peptide (48 aa) with C-terminal 6x HIS-tag, ~5.2 kD]	high affinity	weak and short binding signals	approximately 50%			
Human Fibroblast growth factor-2 [hFGF-2, reference compound]	high affinity			9.6	highest proliferative activity; also recorded: highest cell growth effect	concentration dependent biological activity
